Results from patent US20260120837A1, “METHODS OF DOSING THERAPEUTIC AGENTS” (Fusion Pharmaceuticals Inc., priority 2022, published 2026).
Read-outs that look alike come from different tables or passages of the source.

Tests used:
[1] = Minimal dose to keep plasma concentration Cp(t) above Ctrans for Tdur, two-compartment model solved with deSolve (tocilizumab); set-up: species or system humans
Description: This example requires that Ttrans for the desired therapeutic dose be greater than the pre-determined duration time point post-administration, which is denoted herein as Tdur.
PK model parameters for tocilizumab such as Vc, Cl, Vp, Q, KM and VM are provided in Example 3. Ctrans is determined to be 8.22 μg/mL or 8.22 mg/L; Tur is pre-determined as 28 days, which is equal to or less than Ttrans.

[2] = PK parameters and Ctrans, two-compartment model with mixed linear and nonlinear M-M clearance pathways (four antibodies); format: in vivo, human; settings: calculated by Equation (2), sqrt(KM×VM/Cl)
Description: For this kind of PK model, Ctrans is determined according to Equation (2): […]
PK parameters listed in Table 3, i.e., Vc, Cl, Vp, Q, VM and KM, were obtained based on the protocols disclosed in Frey et al., 2010; Kloft et al., 2004; Ma et al., 2009; and Okamoto et al., 2021, with modification to be consistent with the current model description provided here.

[3] = cited from earlier work; for KM / Q / VM / Vc / Vp: in vivo; for Cl: linear clearance
[4] = PK parameters for rats and Ctrans, two-compartment model with nonlinear only clearance pathway (phenytoin); format: in vivo; settings: rats
Description: Its PK in rats is described by a two-compartment model with nonlinear only clearance described by M-M equation. For this kind of PK model, […] is determined according to Equation (3): PK parameters listed in Table 2, […] and KM, were obtained based on the protocols disclosed in Della Paschoa et al., 1998, with modification to be consistent with the current model description provided herein.

[5] = rats; cited from earlier work
[6] = cited from earlier work; for Kdeg: degradation of free target; for Cl / Q / Vc / Vp: in vivo; for Kint: internalization of drug-target complex; for Ksyn: target synthesis
[7] = PK (TMDD) model parameters and Ctrans, two-compartment TMDD model, QSS approximation; format: in vivo, humans; settings: for Ctrans: Equation (13); for Ttot = Ksyn/Kdeg: total target concentration
Description: For this kind of PK model, Ctrans is determined according to Equation (2), specified by Equation (13).
where VM and KM are calculated from TMDD model parameters according to Equations (11) and (12).
PK parameters listed in Table S were obtained based on the protocols disclosed in Stein & Peletier, 2018 and Rodriguez-Vera et al., 2015, with modification to be consistent with the current model description listed in Equations (7A)-(7D).

[8] = cited from earlier work
[9] = PK parameters and Ctrans, two-compartment model with nonlinear M-M clearance only (cetuximab, alemtuzumab); format: in vivo, human; settings: calculated by Equation (3)
Description: For this kind of PK model, Ctrans is determined according to Equation (3): […]
PK parameters listed in Table 1, i.e., Vc, Vp, Q, VM and KM, were obtained based on the protocols disclosed in Dirks et al., 2008 and Mould et al., 2007, with modification to be consistent with the current model description provided herein.

[10] = in vivo; cited from earlier work
[11] = PK model parameters, Ctrans and therapeutic dose to reach Ctrans at Ttrans, one-compartment model with mixed linear and nonlinear clearance (evolocumab); format: in vivo, humans
Description: Ttrans to reach the transitional concentration Ctrans for any dose level Cmax is determined according to Equation(S). When Ttrans and Ctrans are known, Cmax and the therapeutic dose can be determined as follows.
According to Equation (2), Ctrans is determined to be 115.18 nM or 17.28 mg/L assuming the molecular weight of 150 kDa or 150 kg/mol for a typical antibody. Ttrans is pre-determined to be 28 days. Ttrans and Ctrans can be used to determine Cmax based on Equation(S). Cmax can be obtained from Equation (5) via any root solver as provided in MATLAB™ and RStudio.
PK parameters listed in Table 6 were obtained based on the protocols disclosed in Kuchimanchi et al., 2018, with modification to be consistent with the current model description listed in Equations (2) and (4).

Molecule: Tocilizumab: antibody; two-compartment model with mixed linear and nonlinear clearance
- Ctrans [1]: 8.22 mg/L
- Ctrans [2]: 8.22 µg/mL
- KM [3]: 2.7 µg/mL
- Q [3]: 0.2 L/day
- VM [3]: 7.5 mg/day
- Vc [3]: 3.5 L
- Vp [3]: 2.9 L
- Cl [3]: 0.3 L/day

Molecule: O=C1NC(=O)C(c2ccccc2)(c2ccccc2)N1 [Phenytoin]
- Q = K12 × Vc [4]: 79.98 mL/min
- Vp = Q/K21 [4]: 1333 mL
- Ctrans ([4]; calculated by Equation (3)): 5.9 µg/mL
- K12 [5]: 0.197 min⁻¹
- K21 [5]: 0.060 min⁻¹
- KM [5]: 5.9 µg/mL
- VM [5]: 272 µg/min
- Vc [5]: 406 mL

Molecule: Mavrilimumab: antibody; TMDD model under the QSS condition
- Kdeg [6]: 2.2 (/day)
- Koff ([6]; drug-target binding reverse rate constant): 10 (/day)
- Cl [6]: 0.3 (L/day) ^
- Q [6]: 1.7 (L/day) ^
- Vc [6]: 2.8 L
- Vp [6]: 5.6 L
- Kint [6]: 2.2 (/day)
- Ksyn [6]: 2.4 (nM/day)^
- Ctrans [7]: 4.96 (nM) ^
- VM = KsynVc ([7]; in vivo): 6.72 (nmol/Day)
- Km ([7]; in vivo, read-out: KM = KQSS): 0.0011 µM
- KQSS = (Kint + Koff)/Kon ([7]; quasi-steady-state constant): 1.1 (nM) ^
- Ttot = Ksyn/Kdeg [7]: 1.09 (nM) ^

Molecule: Panitumumab: antibody; two-compartment model with mixed linear and nonlinear clearance
- Ctrans [2]: 3.98 µg/mL
- KM [3]: 0.401 µg/mL
- Q [3]: 0.389 L/day
- VM [3]: 10.6 mg/day
- Vc [3]: 3.66 L
- Vp [3]: 2.58 L
- Cl [3]: 0.269 L/day

Molecule: Vedolizumab: antibody; two-compartment model with mixed linear and nonlinear clearance
- Ctrans [2]: 0.429 µg/mL
- KM [3]: 0.851 µg/mL
- Q [3]: 0.161 L/day
- VM [3]: 0.238 mg/day
- Vc [3]: 3.16 L
- Vp [3]: 1.84 L
- Cl [3]: 1.10 L/day

Molecule: Sibrotuzumab: antibody; two-compartment model with mixed linear and nonlinear clearance
- Ctrans [2]: 0.579 µg/mL
- KM [3]: 0.219 µg/mL
- Q [3]: 0.902 L/day
- VM [3]: 0.811 mg/day
- Vc [3]: 4.13 L
- Vp [3]: 3.19 L
- Cl [3]: 0.530 L/day

Molecule: Nimotuzumab: antibody of Table 5; TMDD model under QSS condition (text b119 says efalizumab)
- Kdeg [6]: 5.5 (/hour)
- Cl [6]: 0.000703 (L/hour) ^
- Q [6]: 0.00322 (L/hour)
- Vc [6]: 1.43 L
- Vp [6]: 18.5 L
- Kint [6]: 0.148 (/hour)
- KQSS = (Kint + Koff)/Kon ([6]; quasi-steady-state constant): 6.96 (mg/L)
- Ksyn [6]: 1.43 (μg/mL/hour)
- Ctrans [7]: 142.3 (μg/mL)
- KM = KQSS ([7]; in vivo): 6.96 (mg/L)
- VM = KsynVc ([7]; in vivo): 2.045 (mg/hour)
- Ttot = Ksyn/Kdeg [7]: 0.26 (μg/mL)

Molecule: Alemtuzumab: antibody; PK described by two-compartment model with nonlinear only clearance
- KM ([8]; M-M equation coefficient): 338 (μg/L)
- VM ([8]; M-M equation coefficient): 1020 (μg/hour)
- Vc ([8]; central compartment distribution volume): 11.3 (L)
- Q ([8]; exchange rate between compartments): 1.05 (L/hour)
- Vp ([8]; peripheral compartment distribution volume): 41.5 (L)
- Ctrans [9]: 338 (μg/L)

B1: Evolocumab: antibody; one-compartment model with mixed linear and nonlinear clearance pathways (antibody, chains of the INN, looked up, V domains shown)
VH: EVQLVQSGAEVKKPGASVKVSCKASGYTLTSYGISWVRQAPGQGLEWMGWVSFYNGNTNYAQKLQGRGTMTTDPSTSTAYMELRSLRSDDTAVYYCARGYGMDVWGQGTTVTVSS
VL: ESALTQPASVSGSPGQSITISCTGTSSDVGGYNSVSWYQQHPGKAPKLMIYEVSNRPSGVSNRFSGSKSGNTASLTISGLQAEDEADYYCNSYTSTSMVFGGGTKLTVL
- Cl [10]: 0.105 L/day
- Km [10]: 0.0273 µM
- VM [10]: 51.02 nmol/day
- Vc [10]: 5.18 L
- Ctrans ([11]; Equation (2)): 115.18 nM
- Ctrans ([11]; assuming molecular weight of 150 kDa): 17.28 mg/L
